Laboratory results as given in patent publication US20220242957A1 (MARENGO THERAPEUTICS, published 2022).

How the values were obtained:
[1] = molecular target: T1, mouse CCR2 and mouse CSF1R, both expressed on the same ExpiCHO cells (mouse, UniProt P51683 1-373; P09581 20-977); assay: flow cytometry on ExpiCHO cells transiently transfected with both mouse CCR2 and mouse CSF1R; goat anti-mouse Fc biotin and streptavidin-PE
T1 construct: whole, on cells; Two separate membrane proteins on one cell, not a complex; also called CCR2 and CSF1R double positive cells; both mCCR2 and mCSF1R
Description: (§1) ExpiCHO cells were transiently transfected with mouse CCR2, mouse CSF1R, or both mouse CCR2 and CSF1R, according to the manufacturer's instructions. In brief, the transfections were performed with ExpiCHO cells at a cell density of 5.6-6.3×10⁶ cells/mL and at least 95% viability. For each transfection, 25 μg of DNA was diluted with 1 mL of OptiPro SFM (Gibco 12309050) and filtered using spin-X centrifuge tube filters (Corning 8160). A solution of 920 µL of OptiPro and 80 μL of expifectamine was added to the filtered DNA, incubated for 1 minute at room temperature, and then added to the cells. On day 1 of the transfection, the cells were enhanced using 150 μL of ExpiCHO enhancer.
(§2) On day 2 of the transfection, the cells were washed with PBS containing 1% BSA (Sigma) and used to set 96-well V-bottom plates (Biotix AP-0350-9CVS) with 100,000 cells/well. UniTI-01 was added to the cells in serial dilutions and incubated for 1 hour at 4° C. The plates were washed twice with PBS containing 1% BSA. […] The plates were read on a CytoFLEX S (Beckman Coulter). Data were calculated as the median fluorescence intensity of the PE-positive population vs. the median fluorescence intensity of the PE-negative population. The data was normalized for the percent of total median fluorescence intensity.

mouse CCR2 = molecular target: T2, mouse CCR2 (mouse, UniProt P51683 1-373); assay: flow cytometry on ExpiCHO cells transiently transfected with mouse CCR2; goat anti-mouse Fc biotin and streptavidin-PE
T2 construct: whole, on cells; also called mCCR2
Description: as §1, §2

mouse CSF1R = molecular target: T3, mouse CSF1R (mouse, UniProt P09581 20-977); assay: flow cytometry on ExpiCHO cells transiently transfected with mouse CSF1R; goat anti-mouse Fc biotin and streptavidin-PE
T3 construct: whole, on cells; also called mCSF1R
T3 sequence (looked up): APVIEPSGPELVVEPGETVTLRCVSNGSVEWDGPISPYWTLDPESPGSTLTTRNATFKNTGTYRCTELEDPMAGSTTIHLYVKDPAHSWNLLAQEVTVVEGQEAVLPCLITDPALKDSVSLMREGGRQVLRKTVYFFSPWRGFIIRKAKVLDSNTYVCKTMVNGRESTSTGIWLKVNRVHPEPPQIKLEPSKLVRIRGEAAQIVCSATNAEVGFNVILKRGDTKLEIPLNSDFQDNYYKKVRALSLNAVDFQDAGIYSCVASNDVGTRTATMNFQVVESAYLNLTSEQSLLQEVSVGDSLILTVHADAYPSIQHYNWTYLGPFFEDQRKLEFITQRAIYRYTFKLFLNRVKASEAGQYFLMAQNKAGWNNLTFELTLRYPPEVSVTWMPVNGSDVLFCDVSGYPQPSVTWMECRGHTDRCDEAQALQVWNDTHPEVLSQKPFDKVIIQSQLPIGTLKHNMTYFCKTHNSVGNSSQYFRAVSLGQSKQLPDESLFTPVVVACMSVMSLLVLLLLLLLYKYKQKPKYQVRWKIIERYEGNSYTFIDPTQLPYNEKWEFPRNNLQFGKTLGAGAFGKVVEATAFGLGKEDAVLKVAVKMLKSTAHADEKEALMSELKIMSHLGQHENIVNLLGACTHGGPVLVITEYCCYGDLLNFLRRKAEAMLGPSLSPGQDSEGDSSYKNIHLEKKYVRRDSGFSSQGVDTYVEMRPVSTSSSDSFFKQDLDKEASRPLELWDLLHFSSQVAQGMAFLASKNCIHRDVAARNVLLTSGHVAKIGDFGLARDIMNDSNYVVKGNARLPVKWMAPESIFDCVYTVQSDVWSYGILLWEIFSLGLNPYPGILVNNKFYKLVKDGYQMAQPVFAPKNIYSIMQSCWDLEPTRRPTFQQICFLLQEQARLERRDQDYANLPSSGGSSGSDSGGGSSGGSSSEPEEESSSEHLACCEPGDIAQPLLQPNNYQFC
Description: as §1, §2

T1 sequence (P51683 whole entry, one chain of several): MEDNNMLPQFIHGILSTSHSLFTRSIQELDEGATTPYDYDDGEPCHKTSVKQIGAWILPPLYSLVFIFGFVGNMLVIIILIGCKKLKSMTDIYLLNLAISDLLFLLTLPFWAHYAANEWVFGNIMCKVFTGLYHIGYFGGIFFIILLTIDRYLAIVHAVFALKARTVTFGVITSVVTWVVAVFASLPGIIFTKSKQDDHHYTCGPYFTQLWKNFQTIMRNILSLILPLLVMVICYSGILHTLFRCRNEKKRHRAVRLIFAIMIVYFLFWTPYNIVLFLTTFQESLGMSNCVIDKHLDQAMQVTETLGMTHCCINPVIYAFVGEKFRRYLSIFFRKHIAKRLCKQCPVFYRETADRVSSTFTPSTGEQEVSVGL
T2 sequence (P51683 whole entry): as the sequence (P51683 whole entry, one chain of several) above

- EC50 [1]: 0.4 nM
- EC50 (mouse CCR2): 15 nM
- EC50 (mouse CSF1R): 1 nM
B1: UniTI-01 (multispecific molecule #1, anti-CCR2/anti-CSF1R bispecific antibody) (bispecific antibody)
heavy 1: QVQLQESGPGLVQPSQTLSLTCTVSGFSLTDFSVHWVRQPPGKGLEWMGRIRSEGNTDYNSALKSRLSISRDTSKSQVFLKMNSLQTEDTAIYFCTRGDILGFGYWGQGVMVTVSSAQTTAPSVYPLAPGCGDTTSSTVTLGCLVKGYFPEPVTVTWNSGALSSDVHTFPAVLQSGLYTLTSSVTSSTWPSQTVTCNVAHPASSTKVDKKVERRTIKPCPPCKCPAPNLLGGPSVFIFPPKIKDVLMISLSPIVTCVVVDVSEDDPDVQISWFVNNVEVHTAQTQTHREDYNSTLRVVSALPIQHQDWMSGKEFKCKVNNKDLPAPIERTISKPKGSVRAPQVYVLPPCEEEMTKKQVTLWCMVTDFMPEDIYVEWTNNGKTELNYKNTEPVLDSDGSYFMYSKLRVEKKNWVERNSYSCSVVHEGLHNHHTTKSFSRTPGK
light 1: DIVMTQSPLSVSVTPGESASISCRSSKSLLHFKGITFVYWYLQKPGQSPQLLIFRMSSLASGVPDRFSGSGSETDFTLKISRVEAEDVGTYYCGQLLENPYTFGAGTKLELKRADAAPTVSIFPPSMEQLTSGGATVVCFVNNFYPRDISVKWKIDGSEQRDGVLDSVTDQDSKDSTYSMSSTLSLTKVEYERHNLYTCEVVHKTSSSPVVKSFNRNEC
heavy 2: QVQLQQSGAELVKPGSSVKISCKASGYTFTSNFMHWIKQQPGNGLEWIGWIYPGDGDTEYNQKFNGKATLTADKSSSTAYMQLSSLTSEDSAVYFCAVNYGGYVLDAWGQGASVTVSSAETTAPSVYPLAPGTALKSNSMVTLGCLVKGYFPEPVTVTWNSGALSSGVHTFPAVLQSGLYTLTSSVTVPSSTWSSQAVTCNVAHPASSTKVDKKIVPRECNTIKPCPPCKCPAPNLLGGPSVFIFPPKIKDVLMISLSPIVTCVVVDVSEDDPDVQISWFVNNVEVHTAQTQTHREDYNSTLRVVSALPIQHQDWMSGKEFKCKVNNKDLPAPIERTISKPKGSVRAPQVCVLPPPEEEMTKKQVTLSCAVTDFMPEDIYVEWTNNGKTELNYKNTEPVLDSDGSYFMVSKLRVEKKNWVERNSYSCSVVHEGLHNHHTTKSFSRTPGK
light 2: EIVLTQSPTTMAASPGEKVTITCRASSSTNYMSWYQQKSGASPKPWIYETSKLASGVPDRFSGSGSGTSYSFTISSMETEDAATYYCHQWSSTPLTFGSGTKLEIKRADAAPTVSIFPPSMEQLTSGGATVVCFVNNFYPRDISVKWKIDGSEQRDGVLDSVTDQDSKDSTYSMSSTLSLTKVEYERHNLYTCEVVHKTSSSPVVKSFNRNEC
notes: one arm for each target; also called mUniTI-01
